In the Human Domainome abundance scans (Beltran et al. 2025):
± gives the uncertainty stated by the source.

B1: Transcription elongation regulator 1-like protein, residues 448 to 504; numbered along this chain, Q5VWI1 (parent)
chain: LPLEERVTHFRDMLLERGVSAFSTWEKELHKIVFDPRYLLLNSEERKQIFEQFVKTR

Variants of: B1
Assay: abundance fitness (aPCA) (normalised: wild type 0, dead -1); higher = more abundant; growth selection in yeast, the domain comes from the species named
Conditions: Homo sapiens

For LPLEERVTHFRDMLLERGVSAFSTWEKELHKIVFDPRYLLLNSEERKQIFEQFVPTR, which abundance fitness is on record?
The abundance fitness was -1.19 ± 0.5.

Which abundance fitness does the source give for LPLEERVTHFRDMLLERGVSAFSTWEKELHKIVFDPRYLLLNSEERKQIFEQFVTTR here?
Its abundance fitness is 0.212 ± 0.14.

For LPLEERVTHFRDMLLERGVSAFSTWEKELHKIVFDPRYLLLNSEERKQIFEQFVSTR, which abundance fitness is on record?
The abundance fitness was -0.04 ± 0.11.

Which abundance fitness does the source give for LPLEERVTHFRDMLLERGVSAFSTWEKELHKIVFDPRYLLLNSEERKQIFEQFVHTR here?
Its abundance fitness is -0.218 ± 0.32.

For LPLEERVTHFRDMLLERGVSAFSTWEKELHKIVFDPRYLLLNSEERKQIFEQFVDTR, which abundance fitness is on record?
Its abundance fitness is -0.514 ± 0.21.

With LPLEERVTHFRDMLLERGVSAFSTWEKELHKIVFDPRYLLLNSEERKQIFEQFVYTR as the variant, how does the abundance fitness read?
The abundance fitness was -0.667 ± 0.28.

Which abundance fitness does the source give for LPLEERVTHFRDMLLERGVSAFSTWEKELHKIVFDPRYLLLNSEERKQIFEQFVLTR here?
The abundance fitness was -0.124 ± 0.1.

With LPLEERVTHFRDMLLERGVSAFSTWEKELHKIVFDPRYLLLNSEERKQIFEQFVCTR as the variant, how does the abundance fitness read?
Its abundance fitness is -0.382 ± 0.34.

For LPLEERVTHFRDMLLERGVSAFSTWEKELHKIVFDPRYLLLNSEERKQIFEQFVNTR, which abundance fitness is on record?
Its abundance fitness is -0.267 ± 0.2.

Which abundance fitness does the source give for LPLEERVTHFRDMLLERGVSAFSTWEKELHKIVFDPRYLLLNSEERKQIFEQFVQTR here?
The abundance fitness was -0.19 ± 0.1.

Which abundance fitness does the source give for LPLEERVTHFRDMLLERGVSAFSTWEKELHKIVFDPRYLLLNSEERKQIFEQFVWTR here?
The abundance fitness was -0.543 ± 0.2.

With LPLEERVTHFRDMLLERGVSAFSTWEKELHKIVFDPRYLLLNSEERKQIFEQFVGTR as the variant, how does the abundance fitness read?
Its abundance fitness is -0.278 ± 0.088.

With LPLEERVTHFRDMLLERGVSAFSTWEKELHKIVFDPRYLLLNSEERKQIFEQFVMTR as the variant, how does the abundance fitness read?
The abundance fitness was 0.06 ± 0.19.

With LPLEERVTHFRDMLLERGVSAFSTWEKELHKIVFDPRYLLLNSEERKQIFEQFVATR as the variant, how does the abundance fitness read?
The abundance fitness was -0.266 ± 0.12.

For LPLEERVTHFRDMLLERGVSAFSTWEKELHKIVFDPRYLLLNSEERKQIFEQFVETR, which abundance fitness is on record?
Its abundance fitness is 0.209 ± 0.15.

With LPLEERVTHFRDMLLERGVSAFSTWEKELHKIVFDPRYLLLNSEERKQIFEQFVKGR as the variant, how does the abundance fitness read?
The abundance fitness was -0.303 ± 0.089.

With LPLEERVTHFRDMLLERGVSAFSTWEKELHKIVFDPRYLLLNSEERKQIFEQFVKKR as the variant, how does the abundance fitness read?
The abundance fitness was -0.078 ± 0.22.

Which abundance fitness does the source give for LPLEERVTHFRDMLLERGVSAFSTWEKELHKIVFDPRYLLLNSEERKQIFEQFVKSR here?
The abundance fitness was -0.017 ± 0.16.

With LPLEERVTHFRDMLLERGVSAFSTWEKELHKIVFDPRYLLLNSEERKQIFEQFVKDR as the variant, how does the abundance fitness read?
The abundance fitness was 0.635 ± 0.27.

With LPLEERVTHFRDMLLERGVSAFSTWEKELHKIVFDPRYLLLNSEERKQIFEQFVKER as the variant, how does the abundance fitness read?
The abundance fitness was 0.336 ± 0.26.

For LPLEERVTHFRDMLLERGVSAFSTWEKELHKIVFDPRYLLLNSEERKQIFEQFVKPR, which abundance fitness is on record?
The abundance fitness was 0.109 ± 0.27.

Which abundance fitness does the source give for LPLEERVTHFRDMLLERGVSAFSTWEKELHKIVFDPRYLLLNSEERKQIFEQFVKCR here?
Its abundance fitness is -0.214 ± 0.17.

Which abundance fitness does the source give for LPLEERVTHFRDMLLERGVSAFSTWEKELHKIVFDPRYLLLNSEERKQIFEQFVKWR here?
Its abundance fitness is -0.482 ± 0.36.

For LPLEERVTHFRDMLLERGVSAFSTWEKELHKIVFDPRYLLLNSEERKQIFEQFVKNR, which abundance fitness is on record?
The abundance fitness was 0.05 ± 0.092.

With LPLEERVTHFRDMLLERGVSAFSTWEKELHKIVFDPRYLLLNSEERKQIFEQFVKRR as the variant, how does the abundance fitness read?
Its abundance fitness is -0.456 ± 0.096.

Which abundance fitness does the source give for LPLEERVTHFRDMLLERGVSAFSTWEKELHKIVFDPRYLLLNSEERKQIFEQFVKQR here?
Its abundance fitness is 0.022 ± 0.12.

For LPLEERVTHFRDMLLERGVSAFSTWEKELHKIVFDPRYLLLNSEERKQIFEQFVKIR, which abundance fitness is on record?
The abundance fitness was -0.034 ± 0.19.

With LPLEERVTHFRDMLLERGVSAFSTWEKELHKIVFDPRYLLLNSEERKQIFEQFVKLR as the variant, how does the abundance fitness read?
The abundance fitness was -0.311 ± 0.13.

With LPLEERVTHFRDMLLERGVSAFSTWEKELHKIVFDPRYLLLNSEERKQIFEQFVKAR as the variant, how does the abundance fitness read?
Its abundance fitness is 0.035 ± 0.16.

With LPLEERVTHFRDMLLERGVSAFSTWEKELHKIVFDPRYLLLNSEERKQIFEQFVKVR as the variant, how does the abundance fitness read?
The abundance fitness was -0.477 ± 0.21.

With LPLEERVTHFRDMLLERGVSAFSTWEKELHKIVFDPRYLLLNSEERKQIFEQAVKTR as the variant, how does the abundance fitness read?
The abundance fitness was -0.949 ± 0.1.

Which abundance fitness does the source give for LPLEERVTHFRDMLLERGVSAFSTWEKELHKIVFDPRYLLLNSEERKQIFEQEVKTR here?
Its abundance fitness is -0.964 ± 0.35.

Which abundance fitness does the source give for LPLEERVTHFRDMLLERGVSAFSTWEKELHKIVFDPRYLLLNSEERKQIFEQHVKTR here?
Its abundance fitness is -0.466 ± 0.39.

Which abundance fitness does the source give for LPLEERVTHFRDMLLERGVSAFSTWEKELHKIVFDPRYLLLNSEERKQIFEQYVKTR here?
The abundance fitness was 0.15 ± 0.14.

For LPLEERVTHFRDMLLERGVSAFSTWEKELHKIVFDPRYLLLNSEERKQIFEQGVKTR, which abundance fitness is on record?
Its abundance fitness is -0.368 ± 0.1.

For LPLEERVTHFRDMLLERGVSAFSTWEKELHKIVFDPRYLLLNSEERKQIFEQWVKTR, which abundance fitness is on record?
The abundance fitness was -0.05 ± 0.15.

For LPLEERVTHFRDMLLERGVSAFSTWEKELHKIVFDPRYLLLNSEERKQIFEQRVKTR, which abundance fitness is on record?
The abundance fitness was -0.837 ± 0.18.

With LPLEERVTHFRDMLLERGVSAFSTWEKELHKIVFDPRYLLLNSEERKQIFEQCVKTR as the variant, how does the abundance fitness read?
Its abundance fitness is -0.828 ± 0.26.

For LPLEERVTHFRDMLLERGVSAFSTWEKELHKIVFDPRYLLLNSEERKQIFEQLVKTR, which abundance fitness is on record?
Its abundance fitness is -0.747 ± 0.19.

For LPLEERVTHFRDMLLERGVSAFSTWEKELHKIVFDPRYLLLNSEERKQIFEQVVKTR, which abundance fitness is on record?
Its abundance fitness is -0.797 ± 0.12.

Which abundance fitness does the source give for LPLEERVTHFRDMLLERGVSAFSTWEKELHKIVFDPRYLLLNSEERKQIFEQTVKTR here?
The abundance fitness was -0.964 ± 0.21.

For LPLEERVTHFRDMLLERGVSAFSTWEKELHKIVFDPRYLLLNSEERKQIFEQSVKTR, which abundance fitness is on record?
Its abundance fitness is -0.718 ± 0.12.

For LPLEERVTHFRDMLLERGVSAFSTWEKELHKIVFDPRYLLLNSEERKQIFEQFWKTR, which abundance fitness is on record?
Its abundance fitness is -0.624 ± 0.18.

For LPLEERVTHFRDMLLERGVSAFSTWEKELHKIVFDPRYLLLNSEERKQIFEQFEKTR, which abundance fitness is on record?
The abundance fitness was -0.821 ± 0.3.

For LPLEERVTHFRDMLLERGVSAFSTWEKELHKIVFDPRYLLLNSEERKQIFEQFPKTR, which abundance fitness is on record?
The abundance fitness was -0.811 ± 0.36.

For LPLEERVTHFRDMLLERGVSAFSTWEKELHKIVFDPRYLLLNSEERKQIFEQFTKTR, which abundance fitness is on record?
Its abundance fitness is -0.093 ± 0.19.

Which abundance fitness does the source give for LPLEERVTHFRDMLLERGVSAFSTWEKELHKIVFDPRYLLLNSEERKQIFEQFAKTR here?
Its abundance fitness is -0.451 ± 0.086.

With LPLEERVTHFRDMLLERGVSAFSTWEKELHKIVFDPRYLLLNSEERKQIFEQFKKTR as the variant, how does the abundance fitness read?
The abundance fitness was -0.396 ± 0.49.

Which abundance fitness does the source give for LPLEERVTHFRDMLLERGVSAFSTWEKELHKIVFDPRYLLLNSEERKQIFEQFDKTR here?
The abundance fitness was -0.32 ± 0.32.

For LPLEERVTHFRDMLLERGVSAFSTWEKELHKIVFDPRYLLLNSEERKQIFEQFFKTR, which abundance fitness is on record?
Its abundance fitness is -0.082 ± 0.35.

With LPLEERVTHFRDMLLERGVSAFSTWEKELHKIVFDPRYLLLNSEERKQIFEQFGKTR as the variant, how does the abundance fitness read?
Its abundance fitness is -0.632 ± 0.11.

Which abundance fitness does the source give for LPLEERVTHFRDMLLERGVSAFSTWEKELHKIVFDPRYLLLNSEERKQIFEQFSKTR here?
The abundance fitness was -0.222 ± 0.12.

For LPLEERVTHFRDMLLERGVSAFSTWEKELHKIVFDPRYLLLNSEERKQIFEQFIKTR, which abundance fitness is on record?
The abundance fitness was -0.199 ± 0.15.

With LPLEERVTHFRDMLLERGVSAFSTWEKELHKIVFDPRYLLLNSEERKQIFEQFCKTR as the variant, how does the abundance fitness read?
The abundance fitness was -0.303 ± 0.27.

With LPLEERVTHFRDMLLERGVSAFSTWEKELHKIVFDPRYLLLNSEERKQIFEQFMKTR as the variant, how does the abundance fitness read?
The abundance fitness was -0.505 ± 0.38.

Which abundance fitness does the source give for LPLEERVTHFRDMLLERGVSAFSTWEKELHKIVFDPRYLLLNSEERKQIFEQFRKTR here?
The abundance fitness was -0.348 ± 0.084.

For LPLEERVTHFRDMLLERGVSAFSTWEKELHKIVFDPRYLLLNSEERKQIFEKFVKTR, which abundance fitness is on record?
The abundance fitness was -0.238 ± 0.16.

For LPLEERVTHFRDMLLERGVSAFSTWEKELHKIVFDPRYLLLNSEERKQIFEPFVKTR, which abundance fitness is on record?
Its abundance fitness is -0.618 ± 0.11.

For LPLEERVTHFRDMLLERGVSAFSTWEKELHKIVFDPRYLLLNSEERKQIFEHFVKTR, which abundance fitness is on record?
The abundance fitness was -0.426 ± 0.097.

For LPLEERVTHFRDMLLERGVSAFSTWEKELHKIVFDPRYLLLNSEERKQIFEAFVKTR, which abundance fitness is on record?
The abundance fitness was -0.395 ± 0.1.

For LPLEERVTHFRDMLLERGVSAFSTWEKELHKIVFDPRYLLLNSEERKQIFEIFVKTR, which abundance fitness is on record?
Its abundance fitness is -0.592 ± 0.094.

Which abundance fitness does the source give for LPLEERVTHFRDMLLERGVSAFSTWEKELHKIVFDPRYLLLNSEERKQIFESFVKTR here?
Its abundance fitness is -0.151 ± 0.07.

With LPLEERVTHFRDMLLERGVSAFSTWEKELHKIVFDPRYLLLNSEERKQIFEWFVKTR as the variant, how does the abundance fitness read?
Its abundance fitness is -0.621 ± 0.14.

With LPLEERVTHFRDMLLERGVSAFSTWEKELHKIVFDPRYLLLNSEERKQIFENFVKTR as the variant, how does the abundance fitness read?
The abundance fitness was -0.506 ± 0.19.

Which abundance fitness does the source give for LPLEERVTHFRDMLLERGVSAFSTWEKELHKIVFDPRYLLLNSEERKQIFEEFVKTR here?
The abundance fitness was 0.114 ± 0.19.

For LPLEERVTHFRDMLLERGVSAFSTWEKELHKIVFDPRYLLLNSEERKQIFEMFVKTR, which abundance fitness is on record?
Its abundance fitness is -0.428 ± 0.11.

With LPLEERVTHFRDMLLERGVSAFSTWEKELHKIVFDPRYLLLNSEERKQIFELFVKTR as the variant, how does the abundance fitness read?
The abundance fitness was -0.435 ± 0.087.

With LPLEERVTHFRDMLLERGVSAFSTWEKELHKIVFDPRYLLLNSEERKQIFEVFVKTR as the variant, how does the abundance fitness read?
Its abundance fitness is -0.526 ± 0.09.

With LPLEERVTHFRDMLLERGVSAFSTWEKELHKIVFDPRYLLLNSEERKQIFEDFVKTR as the variant, how does the abundance fitness read?
The abundance fitness was 0.193 ± 0.15.

For LPLEERVTHFRDMLLERGVSAFSTWEKELHKIVFDPRYLLLNSEERKQIFETFVKTR, which abundance fitness is on record?
The abundance fitness was -0.33 ± 0.088.

For LPLEERVTHFRDMLLERGVSAFSTWEKELHKIVFDPRYLLLNSEERKQIFECFVKTR, which abundance fitness is on record?
Its abundance fitness is -0.402 ± 0.099.
